Experimental data reported in the supplement of paper PMC9732359.
± gives the uncertainty stated by the source.

Assay: protein stability index of a GFP-peptide fusion (yeast GPS) (PSI 1-4); higher = more stable; sorted into four equal gates, so the index is relative within each strain
In short: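 Sequencing reads from sorted gates were used to score each peptide. The library consisted of tiled 17-residue yeast protein peptides fused downstream of GFP on a Cherry-expressing plasmid, pooled and carried in yeast. Mid-log cultures in leucine-free medium were split into four equal gates by GFP/Cherry ratio, and each gate's plasmids were PCR-amplified and Illumina-sequenced. The protein stability index adds up, over all gates, the read frequency multiplied by the gate number.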

HGTYFLDNMTYSSVAGT [RRP4]
protein stability index (doa10∆): 2.21 ± 0.051 | protein stability index (pdr5∆): 2.3 ± 0.043 | protein stability index (san1∆): 2.45 ± 0.062 | protein stability index (ubr1∆): 1.72 ± 0.034

QRARDQDSIDISIKDNK [GAL11]
protein stability index (doa10∆): 3.25 ± 0.1 | protein stability index (pdr5∆): 3.12 ± 0.12 | protein stability index (san1∆): 3.31 ± 0.086 | protein stability index (ubr1∆): 3.13 ± 0.086

TVSPTQDKDAIRKQPDD [SIR2]
protein stability index (doa10∆): 2.99 ± 0.076 | protein stability index (pdr5∆): 3.11 ± 0.087 | protein stability index (san1∆): 2.99 ± 0.067 | protein stability index (ubr1∆): 2.9 ± 0.096

QRTCLMTVTFLILAGQV [YCS4]
protein stability index (doa10∆): 1.19 ± 0.052 | protein stability index (pdr5∆): 1.36 ± 0.05 | protein stability index (san1∆): 1.27 ± 0.099 | protein stability index (ubr1∆): 1.43 ± 0.043

ALMKTLIKFVDLSRNGR [NUT1]
protein stability index (doa10∆): 2.37 ± 0.11 | protein stability index (pdr5∆): 2.29 ± 0.09 | protein stability index (san1∆): 2.26 ± 0.11 | protein stability index (ubr1∆): 2.65 ± 0.15

QTNIWEENWDDVEVDDD [SEM1]
protein stability index (doa10∆): 3.27 ± 0.16 | protein stability index (pdr5∆): 3.28 ± 0.09 | protein stability index (san1∆): 3.37 ± 0.082 | protein stability index (ubr1∆): 3.38 ± 0.13

LYSGLIIDEIITQMRVN [RPC82]
protein stability index (doa10∆): 2.12 ± 0.078 | protein stability index (pdr5∆): 2.36 ± 0.094 | protein stability index (san1∆): 2.71 ± 0.2 | protein stability index (ubr1∆): 1.58 ± 0.068

QLETLTGSIRHRLKLCK [CSE2]
protein stability index (doa10∆): 3.32 ± 0.26 | protein stability index (pdr5∆): 3.05 ± 0.17 | protein stability index (ubr1∆): 2.97 ± 0.21

PLRMETIPILESDSKAT [DSN1]
protein stability index (doa10∆): 2.14 ± 0.062 | protein stability index (pdr5∆): 2.54 ± 0.084 | protein stability index (san1∆): 2.59 ± 0.14 | protein stability index (ubr1∆): 2.27 ± 0.044

TKTILSGTDGSTIGILL [SRP72]
protein stability index (doa10∆): 3 ± 0.064 | protein stability index (pdr5∆): 2.81 ± 0.062 | protein stability index (san1∆): 3.06 ± 0.084 | protein stability index (ubr1∆): 3.01 ± 0.065

STRVEFEKLYSDLMKFL [FAS2]
protein stability index (doa10∆): 3.45 ± 0.3 | protein stability index (pdr5∆): 3.27 ± 0.2 | protein stability index (san1∆): 3.26 ± 0.15

KFKDMGIRAPKGALMYG [RPT5]
protein stability index (doa10∆): 3.01 ± 0.13 | protein stability index (pdr5∆): 3.46 ± 0.19 | protein stability index (san1∆): 3.17 ± 0.21 | protein stability index (ubr1∆): 3.4 ± 0.18

DKNELQQMIITRLKSLL [SIR3]
protein stability index (doa10∆): 2.23 ± 0.058 | protein stability index (pdr5∆): 2.04 ± 0.05 | protein stability index (san1∆): 2.12 ± 0.063 | protein stability index (ubr1∆): 2.08 ± 0.037

LTPNEIKELEHLHDAVF [SWP82]
protein stability index (doa10∆): 2.95 ± 0.072 | protein stability index (pdr5∆): 3.18 ± 0.075 | protein stability index (san1∆): 3.13 ± 0.055 | protein stability index (ubr1∆): 2.95 ± 0.052

PDYYMIIKYPVAFDNIN [SNF2]
protein stability index (doa10∆): 2.78 ± 0.14 | protein stability index (pdr5∆): 2.08 ± 0.12 | protein stability index (san1∆): 1.97 ± 0.12 | protein stability index (ubr1∆): 2.44 ± 0.15

CAERVKIQQQQPGYADL [QCR6]
protein stability index (doa10∆): 3.29 ± 0.13 | protein stability index (pdr5∆): 2.99 ± 0.19 | protein stability index (ubr1∆): 3.09 ± 0.27

SFKKIIKFLLTFIDKER [YCS4]
protein stability index (doa10∆): 1.16 ± 0.065 | protein stability index (pdr5∆): 1.29 ± 0.11 | protein stability index (san1∆): 1.19 ± 0.14 | protein stability index (ubr1∆): 1.17 ± 0.066

DQYIQKQVQISHHLKAD [YGL172W/NUP49]
protein stability index (doa10∆): 2.78 ± 0.076 | protein stability index (pdr5∆): 2.71 ± 0.092 | protein stability index (san1∆): 2.6 ± 0.072 | protein stability index (ubr1∆): 3.07 ± 0.057

SLVALGIDPQDLKKLNL [CDC53]
protein stability index (doa10∆): 2.84 ± 0.068 | protein stability index (pdr5∆): 2.72 ± 0.066 | protein stability index (san1∆): 2.79 ± 0.049 | protein stability index (ubr1∆): 2.25 ± 0.04

INKMVGNRYLEKRLNLR [RPL21A]
protein stability index (doa10∆): 2.65 ± 0.085 | protein stability index (pdr5∆): 2.8 ± 0.077 | protein stability index (san1∆): 2.92 ± 0.092 | protein stability index (ubr1∆): 3 ± 0.065

INGWELTKAQKYLDQVL [RPL17B]
protein stability index (doa10∆): 2.74 ± 0.2 | protein stability index (pdr5∆): 2.9 ± 0.17 | protein stability index (san1∆): 2.86 ± 0.1 | protein stability index (ubr1∆): 2.74 ± 0.063

ETLVLDEADKMIDLGFE [PRP28]
protein stability index (doa10∆): 3.18 ± 0.094 | protein stability index (pdr5∆): 3.22 ± 0.12 | protein stability index (san1∆): 3.31 ± 0.088 | protein stability index (ubr1∆): 3.08 ± 0.056

RKRPVPKGATYGKPTNQ [RPL15A]
protein stability index (pdr5∆): 3.29 ± 0.19 | protein stability index (san1∆): 3.58 ± 0.19 | protein stability index (ubr1∆): 3.45 ± 0.14

ESEQELSLHTGFIENCN [MTR3]
protein stability index (doa10∆): 2.62 ± 0.067 | protein stability index (pdr5∆): 2.99 ± 0.067 | protein stability index (san1∆): 2.88 ± 0.063 | protein stability index (ubr1∆): 2.93 ± 0.053

KDGGDKPPSSAFNFSFN [YAR002W/NUP60]
protein stability index (doa10∆): 3.18 ± 0.066 | protein stability index (pdr5∆): 3.22 ± 0.054 | protein stability index (san1∆): 3.17 ± 0.052 | protein stability index (ubr1∆): 3.29 ± 0.061

AAAAPAPVAAAAPAAAA [FAS2]
protein stability index (pdr5∆): 1.62 ± 0.27

KTSNIESVPIYSIDEFF [BRR2]
protein stability index (doa10∆): 2.56 ± 0.062 | protein stability index (pdr5∆): 2.58 ± 0.067 | protein stability index (san1∆): 2.34 ± 0.045 | protein stability index (ubr1∆): 2.13 ± 0.083

QYVTQIEQEKQEQQEQD [PRE6]
protein stability index (doa10∆): 2.23 ± 0.064 | protein stability index (pdr5∆): 1.93 ± 0.057 | protein stability index (san1∆): 2.85 ± 0.058 | protein stability index (ubr1∆): 1.9 ± 0.045

SAIIENAFRKEELLLKD [GAL11]
protein stability index (pdr5∆): 1.14 ± 0.16 | protein stability index (ubr1∆): 1.18 ± 0.22

DMSKILVDQGFNYSGKD [RET1]
protein stability index (doa10∆): 3.36 ± 0.073 | protein stability index (pdr5∆): 3.31 ± 0.065 | protein stability index (san1∆): 3.31 ± 0.04 | protein stability index (ubr1∆): 3.49 ± 0.042

LAHYVVTAKLLGFTPGE [FAS1]
protein stability index (doa10∆): 1.6 ± 0.13 | protein stability index (pdr5∆): 1.28 ± 0.082 | protein stability index (ubr1∆): 1.48 ± 0.12

VRTRGGNKKYRALRIET [RPS8A]
protein stability index (doa10∆): 2.71 ± 0.032 | protein stability index (pdr5∆): 2.52 ± 0.03 | protein stability index (san1∆): 2.71 ± 0.031 | protein stability index (ubr1∆): 2.853 ± 0.022

LLRPSSKVIIKFLQVMQ [RPS22B]
protein stability index (doa10∆): 1.87 ± 0.069 | protein stability index (pdr5∆): 1.61 ± 0.044 | protein stability index (san1∆): 1.72 ± 0.13 | protein stability index (ubr1∆): 1.82 ± 0.058

KAISVGANTSAAQTLLQ [PRE9]
protein stability index (doa10∆): 2.74 ± 0.054 | protein stability index (pdr5∆): 2.92 ± 0.052 | protein stability index (san1∆): 2.77 ± 0.053 | protein stability index (ubr1∆): 2.92 ± 0.046

EDRPPEYWAQRKKKFVL [ISW2]
protein stability index (pdr5∆): 3.13 ± 0.19

KELQQLQKQILTVENKL [SMC1]
protein stability index (doa10∆): 1.74 ± 0.081 | protein stability index (pdr5∆): 1.99 ± 0.063 | protein stability index (san1∆): 1.98 ± 0.091 | protein stability index (ubr1∆): 2.18 ± 0.09

IRKGPAPLNLEIPAYEF [RIP1]
protein stability index (doa10∆): 2.76 ± 0.062 | protein stability index (pdr5∆): 2.58 ± 0.083 | protein stability index (san1∆): 2.67 ± 0.06 | protein stability index (ubr1∆): 2.73 ± 0.062

YEQHIENIEPLDPINLP [PRP8]
protein stability index (doa10∆): 2.38 ± 0.11 | protein stability index (pdr5∆): 2.9 ± 0.091 | protein stability index (san1∆): 2.5 ± 0.1 | protein stability index (ubr1∆): 2.8 ± 0.071

LLDAYSHIESDSTSHNN [MED1]
protein stability index (doa10∆): 2.73 ± 0.051 | protein stability index (pdr5∆): 2.93 ± 0.048 | protein stability index (san1∆): 2.6 ± 0.057 | protein stability index (ubr1∆): 2.89 ± 0.038

MVLRKQKRYTVKKALAK [RPL14A]
protein stability index (doa10∆): 2.08 ± 0.14 | protein stability index (pdr5∆): 2.13 ± 0.1 | protein stability index (ubr1∆): 1.55 ± 0.19

IRKGANDGEVYQKIFKP [PRE9]
protein stability index (doa10∆): 2.06 ± 0.098 | protein stability index (pdr5∆): 1.81 ± 0.068 | protein stability index (ubr1∆): 1.83 ± 0.059

LLFEDLFKKFNNDFKLS [RET1]
protein stability index (pdr5∆): 1.39 ± 0.23 | protein stability index (ubr1∆): 2.73 ± 0.13

IRLANESSELNKDSIEE [CSN12]
protein stability index (doa10∆): 3.22 ± 0.084 | protein stability index (pdr5∆): 3.43 ± 0.079 | protein stability index (san1∆): 3.34 ± 0.065 | protein stability index (ubr1∆): 3.37 ± 0.083

NKVHETSSKSSSLSAII [YDL088C/ASM4]
protein stability index (doa10∆): 2.67 ± 0.044 | protein stability index (pdr5∆): 2.83 ± 0.053 | protein stability index (san1∆): 2.81 ± 0.054 | protein stability index (ubr1∆): 2.8 ± 0.035

NGNLEEEFAYVDPARRQ [MED6]
protein stability index (doa10∆): 3.62 ± 0.21 | protein stability index (pdr5∆): 3.44 ± 0.12 | protein stability index (san1∆): 3.71 ± 0.1 | protein stability index (ubr1∆): 2.74 ± 0.085

AYFLIIVPVISTIENVL [COB]
protein stability index (doa10∆): 1.52 ± 0.057 | protein stability index (pdr5∆): 1.75 ± 0.045 | protein stability index (san1∆): 1.92 ± 0.059 | protein stability index (ubr1∆): 2.12 ± 0.07

SVPTNSADAPNPNNVNV [RET1]
protein stability index (doa10∆): 3.24 ± 0.084 | protein stability index (pdr5∆): 3.14 ± 0.081 | protein stability index (san1∆): 3.26 ± 0.049 | protein stability index (ubr1∆): 3.23 ± 0.058

EFIYLTKVLQFAAKQRQ [SNF2]
protein stability index (doa10∆): 1.33 ± 0.19 | protein stability index (pdr5∆): 1.28 ± 0.15 | protein stability index (san1∆): 1.39 ± 0.15
